Assay [1] deals with His6-STLV-1 IN (6xHis-tagged STLV-1 MarB43 IN), wild type. Put plainly: pull-down. The conditions noted are these: parent: est. 100; read off a plot.
Assay [2] deals with LEDGF/ΔIBD-B56γ chimera (LEDGF residues 1-324 and B56γ residues 11-380), wild type, O75475;Q13362. Kind of assay: pull-down. To be noted: parent: est. 100; read off a plot.

Our source for the percent of parent (% of wild type) values is PMC7542444.

In the case of “LEDGF/ΔIBD-B56γ chimera (LEDGF residues 1-324 and B56γ residues 11-380), wild type (from UniProt O75475;Q13362) R143A”, the percent of parent (% of wild type) in assay [1] is 46.

Turning to “LEDGF/ΔIBD-B56γ chimera (LEDGF residues 1-324 and B56γ residues 11-380), wild type (from UniProt O75475;Q13362) R84A”, in assay [1], the percent of parent (% of wild type) came to 140.

“LEDGF/ΔIBD-B56γ chimera (LEDGF residues 1-324 and B56γ residues 11-380), wild type (from UniProt O75475;Q13362) E78A; T81A; H82A”: the percent of parent (% of wild type) in assay [1] turned out to be 150.

As to “His6-STLV-1 IN (6xHis-tagged STLV-1 MarB43 IN), wild type H209A”, the percent of parent (% of wild type) in assay [2] is 23.

For “His6-STLV-1 IN (6xHis-tagged STLV-1 MarB43 IN), wild type P215A; P217A”, the percent of parent (% of wild type) in assay [2] was determined as 15.

On to “His6-STLV-1 IN (6xHis-tagged STLV-1 MarB43 IN), wild type H209A; P211A”, for which, in assay [2], the percent of parent (% of wild type) turned out to be 21.

For the substance “His6-STLV-1 IN (6xHis-tagged STLV-1 MarB43 IN), wild type P214A”, in assay [2], the percent of parent (% of wild type) amounted to 57.

Regarding “His6-STLV-1 IN (6xHis-tagged STLV-1 MarB43 IN), wild type E218A”, in assay [2], the percent of parent (% of wild type) turned out to be 5.

Consider “His6-STLV-1 IN (6xHis-tagged STLV-1 MarB43 IN), wild type I216A”, for which the percent of parent (% of wild type) in assay [2] is 1.
